Binding result and EC50 data for 1 molecule are collected here from patent US20240059785A1 (QILU PUGET SOUND BIOTHERAPEUTICS, published 2024).

Assay [1] has as its target T1, human CD37 (Homo sapiens CD37) (Homo sapiens, UniProt P11049 1-281).
T1 construct: Multi-pass cell surface antigen; present on Raji, Ramos, WSU-DLCL2 cells, human B cells, or on stably transfected CHO cells (CD37/CHO); also called hCD37
T1 sequence: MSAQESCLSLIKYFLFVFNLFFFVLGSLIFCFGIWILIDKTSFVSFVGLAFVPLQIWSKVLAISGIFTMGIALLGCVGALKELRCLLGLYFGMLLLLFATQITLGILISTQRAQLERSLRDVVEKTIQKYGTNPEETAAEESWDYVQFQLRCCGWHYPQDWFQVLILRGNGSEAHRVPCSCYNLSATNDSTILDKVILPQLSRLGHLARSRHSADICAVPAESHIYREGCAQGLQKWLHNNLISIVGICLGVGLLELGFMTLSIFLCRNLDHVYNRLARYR
Put plainly: FACS on CHO cells stably expressing hCD37 (CD37/CHO).
Protocol: (§1) The tubes were incubated with shaking for one hour at RT, washed once with 3 mL of FACS buffer, and resuspended in 100 μl of FACS blocking buffer containing 5 μg/mL of the various anti-CD20 antibodies to be tested. The cells were incubated together with the antibodies for 30 minutes at room temperature. […] The tubes were shaken at RT for 30 minutes at 200 rpm and then washed twice in FACS buffer. The cells were then fixed in 2% formaldehyde in phosphate buffered saline (PBS) containing 2% fetal bovine serum (FBS) and subjected to FACS analysis in a FACSCalibur™ benchtop analyzer (BD Biosciences).
CHO cells were transfected hCD20 and, independently, with hCD37. Two cell lines, one stably expressing hCD20 (CD20/CHO) and the other stably expressing hCD37 (CD37/CH0), were derived from these transfectants. […] The cell lines used were CD20/CHO and CD37/CHO as explained above, rather than Raji cells. Cells were centrifuged for 5 minutes at 1500 rpm for washing, rather than 3 minutes at 1500 rpm.

In assay [2] the target is T2, human CD20 (Homo sapiens CD20) (Homo sapiens, UniProt P11836 1-297).
T2 construct: Multi-pass cell surface antigen; present on Raji, Ramos, WSU-DLCL2 cells, human CD19+ B cells, or on stably transfected CHO cells (CD20/CHO); also called hCD20
T2 sequence: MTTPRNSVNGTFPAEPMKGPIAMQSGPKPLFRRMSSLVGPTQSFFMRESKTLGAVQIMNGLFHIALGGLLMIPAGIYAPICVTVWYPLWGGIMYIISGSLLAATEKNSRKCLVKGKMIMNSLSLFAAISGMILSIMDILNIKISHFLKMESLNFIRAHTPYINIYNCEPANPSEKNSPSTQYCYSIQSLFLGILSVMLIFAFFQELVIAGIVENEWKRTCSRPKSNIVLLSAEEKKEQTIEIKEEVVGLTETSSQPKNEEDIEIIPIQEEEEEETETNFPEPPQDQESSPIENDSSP
Put plainly: FACS on CHO cells stably expressing hCD20 (CD20/CHO), EC50 of Geo MFI.
Protocol: as §1
CHO cells were transfected hCD20 and, independently, with hCD37. Two cell lines, one stably expressing hCD20 (CD20/CHO) and the other stably expressing hCD37 (CD37/CH0), were derived from these transfectants. […] The cell lines used were CD20/CHO and CD37/CHO as explained above, rather than Raji cells. Cells were centrifuged for 5 minutes at 1500 rpm for washing, rather than 3 minutes at 1500 rpm. After washing, the cells and primary antibodies were incubated together in a volume of 50 μL rather than 100 μL. Primary antibodies were added at various concentrations to create a dose/response curve, rather than all antibodies being at a concentration of 5 μg/mL.

B1: anti-hCD20 Ab1.2.2.1 (antibody, human IgG4 S228P, kappa)
heavy: QVQLVQSGAEVKKPGSSVKVSCKASGYTFTSYNMHWVRQAPGQGLEWMGAIYPGNGDTSYNQKFQGRVTLTVDKSSSTAYMELSSLRSEDTAVYFCARVVYYSNSYWYFDVWGTGTMVTVSSASTKGPSVFPLAPCSRSTSESTAALGCLVKDYFPEPVTVSWNSGALTSGVHTFPAVLQSSGLYSLSSVVTVPSSSLGTKTYTCNVDHKPSNTKVDKRVESKYGPPCPPCPAPELLGGPDVFLFPPKPKDTLMISRTPEVTCVVVDVSHEDPEVKFNWYVDGVEVHNAKTKPREEQYNATYRVVSVLTVLHQDWLNGKEYKCKVSNKALPAPIEKTISKAKGQPREPQVYTLPPSREEMTKNQVSLTCLVKGFYPSDIAVEWESNGQPENNYKTTPPVLRSDGSFFLYSELTVDKSRWQQGNVFSCSVMHEALHNHYTQKSLSLSPGK
light: EIVLTQSPDFQSVTPKEKVTITCRASSSVSYMHWYQQKPDQSPKPLIYAPSNLASGVPSRFSGSGSGTDYTLTINSLEAEDAATYYCQQWSFNPPTFGAGTKLEIKRTVAAPSVFIFPPSDEQLKSGTASVVCLLNNFYPREAKVQWKVDNALQSGNSQESVTEQDSKDSTYSLSSTLTLSKADYEKHKVYACEVTHQGLSSPVTKSFNRGEC
notes: Ab1.2.2 with D399R and K409E in the CH3; also called α-CD20 Ab1.2.2.1
On to B1, for which the binding result in assay [1] is on record as “no binding (tested: about 0.0002 nM to about 30 nM)”. The EC50 in assay [2] came out at 5.02 nM.

Broadly, the EC50 is the concentration needed to bring the measured effect to its halfway point. Low readings indicate a more potent agent, high ones a less potent agent.
